Source: publication PMC12299903 (Pharmaceuticals, 2025)

Tests used:
[1] = system: Staphylococcus aureus; assay: Bacterial cell death kinetics (time-kill); format: cell-based; conditions: S. aureus in MH broth, 10^5 CFU·mL^−1, tested at 0.5×, 2×, 4× MIC over 12 h, triplicate
Protocol: Bacterial time-kill assays were performed in triplicate, following the methodology of ref. [43] with minor modifications. Staphylococcus aureus was cultured in Mueller–Hinton (MH) broth at an initial concentration of […] and exposed to free peptides and peptide-functionalized nanobiostructures at concentrations corresponding to 0.5×, 1×, 2×, and 4× the MIC (minimum inhibitory concentration). Samples were collected at defined time intervals: 0, 0.5, 1, 2, 4, 6, 8, 10, and 12 h. Cell viability was assessed using the microdrop method described by Romeiro (2001). Serial dilutions of the bacterial suspensions (10^−1, 10^−2, and 10^−3) were prepared, and 5 µL aliquots from each dilution were plated onto brain–heart infusion (BHI) agar. Plates were incubated for up to 12 h, after which colony counts were performed. The number of colony-forming units (UFC) was calculated by multiplying the colony count by the reciprocal of the dilution factor, and results were expressed as UFC·mL^−1. This approach provided quantitative data on the time–dependent bactericidal activity of both the free peptides and nanoparticle-conjugated formulations.

[2] = system: Staphylococcus aureus (ATCC29213); assay: Antibacterial assay, MIC (broth microdilution, resazurin); format: cell-based; conditions: Mueller-Hinton broth, CLSI M07-A9, 1:2 serial dilution from 128.5 μM, 37 °C 20 h, resazurin read-out, triplicate; conjugates dosed as peptide concentration
Protocol: (§1) The peptide Lun-1 and the peptide-conjugated nanoparticles (Lun-EN and Lun-EC) were investigated against […] bacterial strains—Pseudomonas aeruginosa, Staphylococcus aureus, Acinetobacter, Escherichia coli, and Streptococcus agalactiae, all from American Type Culture Collection (Manassas, VA, USA). Details can be found in the SM. […]
(§2) phase at 35 °C and subsequently transferred to Mueller-Hinton broth according to the guidelines established by the M07 -A9 CLSI. Methods for the dilution antimicrobial susceptibility tests for b acteria that grow aerobically were from the Approved Standard—Ninth Edition. CLSI document M07 -A9. Wayne, PA: Clinical and Laboratory Standards Institute; 2012. Bacterial suspensions were adjusted to the turbidity equivalent to 0.5 McFarland standard ([…]), by spectrophotometric measurement at 625 nm (Bel Photonics S2000 UV, São Paulo, Brazil).
(§3) The suspension was then diluted 1:20, and 50 μL aliquots were distributed into 96-well flat-bottom microplates (Nümbrecht, Germany).
(§4) Chloramphenicol (30 μg·mL⁻¹; 92.8 μM) was used as standard drug and served as positive control for growth bacterial inhibition. Wells containing 50 μL of bacterial inoculum and 50 μL of sterile culture medium were used as negative controls. Free peptides were tested at a maximum concentration of 128.5 μM and diluted via serial dilution (1:2) up to seven times in Mueller–Hinton broth. For the nanoparticle– peptide conjugations concentration s were adjusted according to the degree of functionalization to ensure accurate dosing of the active peptide component.
(§5) Plates were incubated at 37 °C for 20 hours. After incubation, 30 μL of a 0.01% (w/v) resazurin solution (10-oxido -7 -oxophenoxazin-10 -ium -3 -olate; Sigma -Aldrich, St. Louis, MO, USA) was added to each well. Plates were protected from light and incubated for an additional 4 hours to allow colorimetric development. The tests whose bacteria did not develop a pink color after incubation (maintaining the blue coloration) were […]

[3] = system: Acinetobacter (ATCC17978); assay: as above; format: cell-based; conditions: Mueller-Hinton broth, CLSI M07-A9, 1:2 serial dilution from 128.5 μM, 37 °C 20 h, resazurin read-out, triplicate; conjugates dosed as peptide concentration
Protocol: as §1, §2, §3, §4, §5

[4] = system: Streptococcus agalactiae (ATCC 29313); assay: as above; format: cell-based; conditions: Mueller-Hinton broth, CLSI M07-A9, 1:2 serial dilution from 128.5 μM, 37 °C 20 h, resazurin read-out, triplicate; conjugates dosed as peptide concentration
Protocol: as §1, §2, §3, §4, §5

[5] = system: Escherichia coli (ATCC25922); assay: as above; format: cell-based; conditions: Mueller-Hinton broth, CLSI M07-A9, 1:2 serial dilution from 128.5 μM, 37 °C 20 h, resazurin read-out, triplicate; conjugates dosed as peptide concentration
Protocol: as §1, §2, §3, §4, §5

[6] = system: Pseudomonas aeruginosa (ATCC27853); assay: as above; format: cell-based; conditions: Mueller-Hinton broth, CLSI M07-A9, 1:2 serial dilution from 128.5 μM, 37 °C 20 h, resazurin read-out, triplicate; conjugates dosed as peptide concentration
Protocol: as §1, §2, §3, §4, §5

[7] = Circular dichroism, secondary structure content; format: physicochemical; conditions: 10 mM Tris-HCl, 100 mM NaCl, pH 8.5, 25 µM peptide, 25 °C
Protocol: Circular dichroism spectra were recorded using a JASCO J-815 spectrometer (Easton, MD, USA) equipped with a Peltier Jasco model PTC-423 L temperature control system. Spectra were obtained using a quartz cuvette with a 1 cm optical path at a temperature of 25 °C, covering a wavelength range from 190 to 260 nm with eight consecutive scans per sample. The scan speed was set at 100 nm/min and the response time was 4 s. The bandwidth was 1 nm, and ellipticity readings were taken every 0.2 nm. The Lun-1 (25 µM), NP (0.155 mg·mL^−1), NP-Lun-EN (0.17 mg·mL^−1–25 µM of peptide concentration), and NP-Lun-EC (0.18 mg·mL^−1–25 µM of peptide concentration) samples were (corresponding to 25 µM of peptide in NP-Lun-EN and NP-Lun-EC) suspended in 10 mM Tris-HCl buffer solution at pH 8.5 containing 100 mM NaCl or in 200 µM POPC:POPG (3:1, mol:mol) LUVs suspended in the same buffer solution. Data processing and deconvolution calculations to obtain the contents of secondary structures were carried out using the CDpro® program.

[8] = Differential scanning calorimetry of model membranes; conditions: 3 mM DMPC:DMPG (3:1) LUVs, 10 mM Tris-HCl pH 7.5, pure LUVs 23.1, triplicate, ± 0.2 °C
Protocol: The phase transition profile of 1,2-dimyristoyl-sn-glycero-3-phosphocholine and 1,2-dimyristoyl-sn-glycero-3-phosphocholine/1,2-dimyristoyl-sn-glycero-3-phosphoglycerol (DMPC:DMPG. 3:1, mol:mol) at 3 mM was investigated in the absence and presence of Lun-1, NP, NP-Lun-EN, and NP-Lun-EC at different concentrations (Table S1, using a VP-DSC® microcalorimeter (Malvern® Instruments, Malvern, UK). All mixtures of LUVs and peptide–LUVs were prepared immediately prior to the experiments. The samples were pre-degassed and tested against a 10 mM Tris-HCl buffer (pH 7.5) containing 50 mM NaCl in the reference cell. Buffer-only experiments were also performed in all cells for subsequent background subtraction. Each sample underwent three successive heating scans in the temperature range of 10–35 °C at a heating rate of 1.0 °C.min^−1. Data analyses were performed using Microcal Origin® DSC software version 5.0 (GE HealthCare-Microcal®, Amherst, MA, USA), which was employed to subtract the blank and determine the transition temperature (Tm) and transition enthalpy (DtransH) from the gel phase to the liquid crystalline phase.

NP-NtermEAAA-Lun-1 [NP-Lun-EN]
concentrations giving sustained reduction in viable cells without regrowth [1]: 2 × MIC and 4 × MIC
MIC [2]: 64.2 µM
MIC [3]: did not exhibit activity
MIC [4]: 128.5 µM
MIC [5]: 128.5 µM
MIC [6]: did not exhibit activity
a-helical percentage (CD deconvolution) ([7]; in buffer, CDpro): 35%
β-sheet percentage (CD deconvolution) ([7]; in buffer, CDpro): 45%
α-helix content (CD deconvolution) ([7]; in presence of 200 µM POPC:POPG (3:1) LUVs): 40%
Tm of LUVs ([8]; 10 µM peptide): 22.9 °C
Tm of LUVs ([8]; 25 µM peptide): 22.9 °C
Tm of LUVs ([8]; 50 µM peptide): 22.9 °C
Tm of LUVs ([8]; 100 µM peptide): 21.9 °C
